These results are taken from paper PMC2716121 (Journal of molecular biology, 2009).

What all share (assay): AUC
For series [1], the target named is PhoB^F20D, phosphorylated (Escherichia coli) (UniProt P0AFJ5).
Series [2] concerns the target Wild-type PhoB, phosphorylated (Escherichia coli) (UniProt P0AFJ5).
The target in series [3] is Wild-type PhoB, unphosphorylated (Escherichia coli) (UniProt P0AFJ5).
The series “AUC” concerns the molecule itself.

A word on the Kd: it is the concentration at which binding is half-saturated. A higher Kd goes with weaker binding. For “PhoB^F20D, phosphorylated (from UniProt P0AFJ5 1-229) (natural protein)”, the dissociation constant (Kd) in series [1] amounted to 2800 nM.
In the case of “Wild-type PhoB, phosphorylated (from UniProt P0AFJ5 1-229) (natural protein)”, the Kd in series [2] is 5.1 µM.
For “Wild-type PhoB, unphosphorylated (from UniProt P0AFJ5 1-229) (natural protein)”, in series [3], the dissociation constant (Kd) worked out at 378 µM.

B1: PhoB^R91E/E111R, unphosphorylated (natural protein, Escherichia coli, UniProt P0AFJ5 1-229, looked up)
chain: MARRILVVEDEAPIREMVCFVLEQNGFQPVEAEDYDSAVNQLNEPWPDLILLDWMLPGGSGIQFIKHLKRESMTRDIPVVMLTARGEEEDEVRGLETGADDYITKPFSPKRLVARIKAVMRRISPMAVEEVIEMQGLSLDPTSHRVMAGEEPLEMGPTEFKLLHFFMTHPERVYSREQLLNHVWGTNVYVEDRTVDVHIRRLRKALEPGGHDRMVQTVRGTGYRFSTRF
Consider B1, for which, in “AUC”, the binding result is “binds”.

B2: PhoB^R91E/E111R, phosphorylated (natural protein, Escherichia coli, UniProt P0AFJ5 1-229, looked up)
chain: B1 chain
modifications: phosphorylated at D53 (site of phosphorylation) with phosphoramidate; 100% phosphorylated at steady state
For the molecule B2, in “AUC”, the binding result is given as “binds”.
